The PETadex activity labels (doi:10.1128/aem.01698-25)

B1: unnamed (protein)
chain: MKFRALLFSASLIAILFNGLTINTVNAQTNDFLYGDQLPDAPELSSRGEYKVGVKTVNLVNPNQVDILNSKEGNDPTYDRPITIEVWYPANVGDDAKTVVYDEVMGTRGDSLRPLTPFTFKGRAYRDATPKTGNKFPLVVVSHGYVGSRYLMTYLTENLASKGYIVAAIDHTDSTFKDANAFQSTLLNRPKDIRFVINEMEKMGAKGSKNNLEGVVDANNTAIIGYSMGGYGVLNVGGAGYSAGLAQFFTGMTGGSTAISVHTAGNAAYEKMIDARIKAIVAFAPWGMERGVWDAEGLKGLKTPTFFIAGSQDDISGYEKGIKAIYEGAVNADRYLLTYMNARHNVAPNPPPAEALAPGLHIDEYYRYAEPSWDQRKMNNINQHFVTAFIGKHLKNQDSTKFLEVQEDSNEKDWTGFKPRSSTGMELLHAQPAN
B2: unnamed (protein)
chain: MPILNRFAHFQLILCFLISNLVLNAQTGSFVYGDALPDAPELSARGSYAVGVRTLDFVNKGQADVLNSKNGIDPIYDRPLKVEVWYPAQLAEGAKETVVYDEVMGTAHDSLRPLTPITFKGRASRDAAPLTTDGSFPLLVVAHGYVGSRYLMTYLTENLASKGYVVVAIDHTDSTFRDASPFASTLVNRAKDISFVLNQTVNLGKAADNNFLAGLVDSENIGIIGYSMGGYGVLNVAGAGYSDGLVGFFSGMTGGSKAIVDLAMSNPDFPKVDPRIKAVVAFAPWGMERGIWDAEGLKGLKVPTFFIAGSQDDISGYEKGIKAIYTGAVNADRYLLTYENARHNVAPNPPPAESFEPGLHIDEYYRYAEPSWDERKINNVNQHFITAFLGIHLKQKDYSKFLELQENSNEKDWTGFKARSSTGMELLHDKPAP

Substrate: pNP-C8
Test: Proxy for plastic degradation [Absorbance @ 405nm]

| Protein | Proxy for plastic degradation (4 °C) [%] | Proxy for plastic degradation (10 °C) [%] | Proxy for plastic degradation (20 °C) [%] | Proxy for plastic degradation (30 °C) [%] | Proxy for plastic degradation (40 °C) [%] | Proxy for plastic degradation (50 °C) [%] | Proxy for plastic degradation (60 °C) [%] | Proxy for plastic degradation (70 °C) [%] | Proxy for plastic degradation (80 °C) [%] | Proxy for plastic degradation (90 °C) [%] | Proxy for plastic degradation (pH 3) [%] | Proxy for plastic degradation (pH 4) [%] | Proxy for plastic degradation (pH 5) [%] | Proxy for plastic degradation (pH 9) [%] | Proxy for plastic degradation (pH 9.2) [%] | Proxy for plastic degradation (pH 10.2) [%] |
| --- | --- | --- | --- | --- | --- | --- | --- | --- | --- | --- | --- | --- | --- | --- | --- | --- |
| B1 | 90 | 90 | 90 | 95 | 100 | 95 | 35 | 5 | 30 | 0 | 0 | 5 | 55 | 60 | 80 | 55 |
| B2 | 95 | 70 | 90 | 90 | 100 | 90 | 10 | 15 | 25 | 20 | 0 | 0 | 0 | 0 | 0 | 0 |
